Measurements: the nanobody polyreactivity screen of Harvey et al. (2022)

Experiment: yeast display, Sf9 membrane polyspecificity reagent, FACS + sequencing; frameworks hold sequencing errors
Procedure, shortened: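 Galactose induction of a Saccharomyces cerevisiae BJ5465 synthetic nanobody display library ran 36–48 hours. The cells were then stained for 1 hour at 4 °C with 10% biotinylated, detergent-solubilized Sf9 membrane reagent, pulled down on streptavidin microbeads and FACS-sorted into low and high (top ~1%) gates on expression and reagent-binding fluorescence. Labels for polyreactivity follow the gate of origin.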

Sequence	polyreactivity (PSR sort gate)
QVQLVESGGGLVQARGSLRLSCAASGRIFKYNAMGWYRQAPGKESELVAAISGGGSTNYADSVKGRFTISRDNAKNTVYLLMNSLKPEDTAVYYCAKGYRRVYGPFYYWGQGTQVTVSS	low polyreactivity
QVQLVESGGGLVQARGSLRLSCAASGRIFPGYAMGWYRQAPGKERELVAGISNDASTNYADSVKGRFTISRDNAKNTVYLQMNSLKPEDTAVYYCAAEISSLSFPRYDYWGQGTQVTVSS	low polyreactivity
QVQLVESGGGLVQARGSLRLSCAASGRIFVINAMGWYRQAPGKERELVAAISQSGGSTYYADSVKGRFTISRDNAKNTVYLQMNSLKPEDTAVYYCNALSNVPYDYWGQGTLVTVSS	low polyreactivity
QVQLVESGGGLVQARGSLRLSCAASGRIFYFYAMGWYRQAPGKERELVAAITESTSSTYYADSVKGRFTISRDNAKNTVYLQMNSLKPEDTAVYYCAARVSQWLPYGGSSRYYYWGQGTQVTVSS	high polyreactivity
QVQLVESGGGLVQARGSLRLSCAASGRTFGGYARGWYRQAPGKERELVATISKRAGSTYYADSVKGRFTISRDHAKNTVYLQMNSLKPEDTAVYYCAKVKSARYQEYEYWGQGTQVTVSS	high polyreactivity
QVQLVESGGGLVQARGSLRLSCAASGSIFDDYAMGWYRQAPGKERELVAAISSSGTSTYYADSVKGRFTISRDNAKNTVYLQLNSLKPEDTAVYYCAARSAILKSGYLMEYWGEGTQVTVSS	low polyreactivity
QVQLVESGGGLVQARGSLRLSCAASGSIFQYNAMGWYRQAPGKERELVAAINGGGSTYYADSVKGRFTISRNNAKNTVYLQLTSLNPEDTAVYYCNADAMDEDWRGYWGQGTQVTVSS	low polyreactivity
QVQLVESGGGLVQARGSLRLSCAASGSIFYGNAMGWYRQAHGKERELVAAISQSGGSTYYADSVKGRFTISRDNAKNTVYLQMNSLKPEDTAVYYCAAYTPYATWRYDYWGQGTQVTVSS	low polyreactivity
QVQLVESGGGLVQARGSLRLSCAASGSTFGGYAMGWYRKAPGKERELVASISAIGGSTYYADSVKGRFTISRDNAKNTFYLQMNSMKPEDTAVYYCAAQRGGGPNDYWGQGTQVTVSS	high polyreactivity
QVQLVESGGGLVQARGSLRLSCAASGSTFGWYAMGWYREAPGKERELVAAIYRGGGSTYYADSVKVRFTISRDNAMNTVYLQMNSLKPEDTAVYYCAAYSYYQGGMDYWGEGTQVTVSS	high polyreactivity
QVQLVESGGGLVQARGSLRLSCAASGSTFVGYAMGWYRQAPGKEREFVAAITRGGSTNYADSVKGRFTISRDNAKNTVYLQMNSLKPEDTAVYYCAARDRREGFNFDYWGQGTQVTVSS	low polyreactivity
QVQLVESGGGLVQARGSLRLSCAASGSTLRRYAMGWYRQAPGKERELVAAISGSGDSTYYADSVKGRFTISRDNAKNTVYLQMNSLKPEDTAVYYCNAVYAFNGYDYWGQGSQVTVSS	low polyreactivity
QVQLVESGGGLVQARGSLRLSCAASGYIFAVYAMGWYRQANGKERELVAAITWSGGRTYYADSVKGRFTISLDNAKNTVYLQMNSLKPEDTAVYYCNARARSRKFYYWGQGTQVTVSS	high polyreactivity
QVQLVESGGGLVQARGSLRLSCAASVIIFRLYGRGWYRQAPGKEREFVATITWRGGRTNYADSVKGRFTISRDNAKNTVYLQMNSLKPEDTAVYYCAKVVRYARSNEYDSWGQGTQVTVSS	low polyreactivity
QVQLVESGGGLVQARGSLRLSCAAYGLTLRGYAMGWYRQAPGKERELVAAISGSGTSTYYADSVKWRFTISRDNAKNTVYLQMNSLKPEDTAVYYCAAVKVRKGLEMGYWGQGTQVTVSS	high polyreactivity
QVQLVESGGGLVQARGSLRLSCAGSGRTFGYYAMGWYRHAPGKERELVAAIDQSDTYYADSVKGRFTISRDNAKITVSLQMNSLKPEDTAVYYCAADGDPSIEDEYWGQGTQVTVSS	high polyreactivity

Sequence	polyreactivity (PSR sort gate)
QVQLVESGGGLVQARGSLRLSSAAYGRTLYSYAMGWYRQAPGKERELVATIRRSGGSTNYADSVKGRFTISRDNAKNTVYLQMNSLKPEDTAVYYCAAVSFKPEYYYWGQGTQVTVSS	high polyreactivity
QVQLVESGGGLVQARGSLRLSSSASGSIFKYYAMGRYRHAPGKESELGAAISYSGGTTYYADSVKGRFTISRDNAKNTVYLQMNSLKPEDTAVYDCNARYPNFVVRGYAPYDYWGQGSQVTVSS	low polyreactivity
QVQLVESGGGLVQARGSLRLTCAASGNIFVSYAMGWYRPAPGKERELVAAISKRGGSTYYADSVKGRFTISRDNAKNTVDLQMISLKPEDTAVYYCAALGHVDDSIYDYWGQGTQVTVSS	high polyreactivity
QVQLVESGGGLVQARGSLRLTWAASGRTFGINAMGWYRQAPGKERELVAVISGSGGNTYYADSVKGRFTISRDNAKNTVYLQMNSLKPEDTAVYYFATSYEKFRYDHGYWGQGTQVTVSS	low polyreactivity
QVQLVESGGGLVQARGSRRLSCAASGLTFVPTAMGWYRQAPGKEREFVAAISNNGGRKYYADSVKGRFTISRDNAKNRVYLQINSLKPDDTAVYYCAKYLSPGERHSYDYWGQGTQVTVSS	high polyreactivity
QVQLVESGGGLVQARVSLRLSCAASGRIYGYTMGWYRQAPGKERELVAAITRNGGSTYYADSVKARFTISRDNSKNTVSLQMNSLKPEDNAVYYCAARNAFGTYYAWGQGTQVTVAS	high polyreactivity
QVQLVESGGGLVQARVSLRLSCAASGSIFNGYAMRWYRQAPGKESEFVAAISASGGGTYYADSVKGRFTISRDNAKNTVYLQMNSLKPEDTAVYYCNARYHPYYWGYRYDYWGQGTQVTVSS	low polyreactivity
QVQLVESGGGLVQAVGILRLSCASYGRTFVANAMGWYIQAPGKERELVAGITCGDSTYYADSVKWRFTISRDNAKNTVYLQMNRLKPEDTAVYYCSAPYNFWNFFDLIYVWDGYDYWGQGTQVTVSS	low polyreactivity
QVQLVESGGGLVQAVGRLRLSCAASGFTFPWYAMGWYRHAPGKERELVAAISTSGDSTYYADSVKGRFTISRDNAKNTVYLQMNSLKPADTAVYYCAARVVRGRYGYWGQGTQVTVSS	high polyreactivity
QVQLVESGGGLVQAVGRLRLSCAASGRILPLYAMGWYRQAPGKEREMVADITGSDGSTYYADSVKGRFSISRDNAKNTVYLQMNSLKPEDTAVYYCATDAIGRTPSDPWDYYYWGQGTQVTVSS	low polyreactivity
QVQLVESGGGLVQAVGSLRLSCAACGRILWYYTMGWYRQAPAKERELVAAISGRGSSTYYADSVKGRFTISRDNAKNTVYLQMNSLKPEDTAVYYCNAALRTRRGDYDYWGQGTQVTVSS	high polyreactivity
QVQLVESGGGLVQAVGSLRLSCAASGFTFGRYAMGWYIQAPAKEREFVASISARGGNTFYADSVKGRFTISRDNAKNTVYLQMNSLKPEDTAVYYCNAYYLAEYDYWGQGTQVTVSS	high polyreactivity
QVQLVESGGGLVQAVGSLRLSCAASGLTFYIYVMGCYRQAPGKERELVAAISGSGGSTYYADSVKGRFTISRDNAKNTVYLHLNSLKLEDTALYYCNAEDWWRYLRGEDDYWGQGTQVTVSS	high polyreactivity
QVQLVESGGGLVQAVGSLRLSCAASGRIFPYYAMGWYSQAPGKERELVAVFTIGGNSYYADSVKGRFTMSRDNAKNTVYLQMNSLKPEDTAVYYCAASAYSYYRFDYWGQGTQVTVSS	low polyreactivity
QVQLVESGGGLVQAVGSLRLSCAASGRTFNLYAMGWYRQAPGKERELVAAITRRGGRTYYADSVKGRFTISRDNAKNTVYLQMNSLKPEDTAVYYCAARGYYGKFSGSGYWGQGTQVTVSS	high polyreactivity
QVQLVESGGGLVQAVGSLRLSCAASGSILVTYMGWYRPAPGKEREVVAAISYTGGSTYYADSVKGRFTISRDNAKNSVYLQMNSLKPEDTEVFYCASFYLASETYYYFYWPKDSDDYCGQGTQVTVSS	low polyreactivity
